Reference: US20040053822A1

Target: HLA-A*2401 (human)
Experiment: inhibition of 125I-labelled standard peptide binding to purified HLA
Settings: not given

Binder	relative binding ratio (IC50 standard peptide / IC50 test peptide)
LYIFATCL [MAGE3 175-182 (position 175, 8 amino acids)]	0.014
IWEELSVL [MAGE3 221-228 (position 221, 8 amino acids)]	-0.0004
SYDGLLGDNQI [MAGE3 185-195 (position 185, 11 amino acids)]	0.0026
LYIFATCLGL [MAGE3 175-184 (position 175, 10 amino acids)]	0.048
NWQYFFPVIF [MAGE3 142-151 (position 142, 10 amino acids)]	0.017
QYFFPVIF [MAGE3 144-151 (position 144, 8 amino acids)]	0.12
EMLGSVVGNW [MAGE3 134-143 (position 134, 10 amino acids)]	0.0017
HFVQENYL [MAGE3 249-256 (position 249, 8 amino acids)]	-0.0004
VFEGREDSI [MAGE3 230-238 (position 230, 9 amino acids)]	-0.0004
IFSKASSSL [MAGE3 150-158 (position 150, 9 amino acids)]	0.016
VFEGREDSIL [MAGE3 230-239 (position 230, 10 amino acids)]	-0.0005
IFATCLGL [MAGE3 177-184 (position 177, 8 amino acids)]	0.012
NYPLWSQSY [MAGE3 76-84 (position 76, 9 amino acids)]	0.027

Target: HLA-A*3301 (human)
Experiment: competition with 125I probe peptide, purified HLA
Settings: remark: other sources report otherwise

Binder	IC50 [nM]
SMLEVFEGR [MAGE2.226 9-mer …]	9

Target: HLA-A*1101 (human)
Experiment: competition with 125I probe peptide, purified HLA
Settings: remark: other sources report otherwise

Binder	IC50 [nM]
LVHFLLLK [MAGE2/3.116 8-mer LVHFLLLK]	40
YVFPVIFSK [MAGE3.138.V2 …]	3

Target: HLA-A*0301 (human)
Experiment: competition with 125I probe peptide, purified HLA
Settings: remark: other sources report otherwise

Binder	IC50 [nM]
LLGDNQIMPK [MAGE1/3.189 10-mer …]	500
SVFSTTINK [MAGE2.69.V2K9 …]	20
YFFPVIFSK [MAGE3.138 9-mer …]	5000

Target: HLA-A*0201 (human)
Experiment: competition with 125I probe peptide, purified HLA
Settings: remark: other sources report otherwise

Binder	IC50 [nM]
YLQLVFGIEV [MAGE2.157 10-mer …]	50

Target: HLA-A*6801 (human)
Experiment: competition with 125I probe peptide, purified HLA
Settings: remark: other sources report otherwise

Binder	IC50 [nM]
LVHFLLLK [MAGE2/3.116 8-mer LVHFLLLK]	400
LVHFLLLKY [MAGE2/3.116 9-mer …]	8000

Target: HLA-A*3101 (human)
Experiment: competition with 125I probe peptide, purified HLA
Settings: remark: other sources report otherwise

Binder	IC50 [nM]
TVINYTLWK [MAGE2.73.V2K9 …]	9000
YVFPVIFSR [MAGE3.138.V2R …]	6
ALIETSYVK [MAGE2.277 9-mer …]	900

Target: HLA-A*0201 (human)
Experiment: inhibition of 125I-probe binding to purified HLA-A*0201
Settings: remark: other sources report otherwise

Binder	IC50 [nM]
KMVELVHFL [MAGE2.112 (9-mer)]	< 500
YLQLVFGIEV [MAGE2.157 (10-mer)]	< 500

Target: HLA-B*0702 (human)
Experiment: competition vs 125I probe peptide, purified HLA
Settings: remark: other sources report otherwise

Binder	IC50 [nM]
YPLWSQSI [MAGE3.77.I8 YPLWSQSI]	60

Target: HLA-A*0201 (human)
Experiment: competition vs 125I probe peptide, purified HLA
Settings: remark: other sources report otherwise

Binder	IC50 [nM]
YLQLVFGIEV [MAGE2.157 …]	50
KMVELVHFL [MAGE2.112 …]	9.8

Target: HLA-B*5101 (human)
Experiment: competition vs 125I probe peptide, purified HLA
Settings: remark: other sources report otherwise

Binder	IC50 [nM]
VPISHLYILI [MAGE2.170.110 …]	50
VPISMLYIL [MAGE2.170.M5 …]	70

Target: HLA-A2401 (human)
Experiment: inhibition of 125I probe peptide binding to purified HLA
Settings: not given

Binder	relative binding ratio (IC50 standard/IC50 peptide)
SYDGLLGDNQI [MAGE3 peptide, position 185, 11 amino acids]	0.0026
QYFFPVIF [MAGE3 peptide, position 144, 8 amino acids]	0.12
IFSKASSSL [MAGE3 peptide, position 150, 9 amino acids]	0.016
EMLGSVVGNW [MAGE3 peptide, position 134, 10 amino acids]	0.0017
LYIFATCLGL [MAGE3 peptide, position 175, 10 amino acids]	0.048
LYIFATCL [MAGE3 peptide, position 175, 8 amino acids]	0.014
IFATCLGL [MAGE3 peptide, position 177, 8 amino acids]	0.012
NWQYFFPVIF [MAGE3 peptide, position 142, 10 amino acids]	0.017
